According to publication PMC5727187, “Insights into the structure and assembly of a bacterial cellulose secretion system” (Nature Communications, 2017):

B1: BcsB (recombinant, BL21) (natural protein, E. coli 1094, UniProt P37652 26-779, looked up)
chain: TPATQPLINAEPAVAAQTEQNPQVGQVMPGVQGADAPVVAQNGPSRDVKLTFAQIAPPPGSMVLRGINPNGSIEFGMRSDEVVTKAMLNLEYTPSPSLLPVQSQLKVYLNDELMGVLPVTKEQLGKKTLAQMPINPLFISDFNRVRLEFVGHYQDVCEKPASTTLWLDVGRSSGLDLTYQTLNVKNDLSHFPVPFFDPSDNRTNTLPMVFAGAPDVGLQQASAIVASWFGSRSGWRGQNFPVLYNQLPDRNAIVFATNDKRPDFLRDHPAVKAPVIEMINHPQNPYVKLLVVFGRDDKDLLQAAKGIAQGNILFRGESVVVNEVKPLLPRKPYDAPNWVRTDRPVTFGELKTYEEQLQSSGLEPAAINVSLNLPPDLYLMRSTGIDMDINYRYTMPPVKDSSRMDISLNNQFLQSFNLSSKQEANRLLLRIPVLQGLLDGKTDVSIPALKLGATNQLRFDFEYMNPMPGGSVDNCITFQPVQNHVVIGDDSTIDFSKYYHFIPMPDLRAFANAGFPFSRMADLSQTITVMPKAPNEAQMETLLNTVGFIGAQTGFPAINLTVTDDGSTIQGKDADIMIIGGIPDKLKDDKQIDLLVQATESWVKTPMRQTPFPGIVPDESDRAAETRSTLTSSGAMAAVIGFQSPYNDQRSVIALLADSPRGYEMLNDAVNDSGKRATMFGSVAVIRESGINSLRVGDVYYVGHLPWFERVWYALANHPILLAVLAAISVILLAWVLWRLLRIISRRRLNPDNE
notes: BcsB, amplified from genomic DNA of E. coli 1094 bcsA^HA-FLAG; source: E. coli BL21 (DE3), bcs^HisRQA^HA-FLAGB-pCDF-Duet, co-expressed, detergent-solubilised membranes; purified complex for EM
B2: BcsB (natural protein, E. coli 1094, UniProt P37652 26-779, looked up)
chain: B1 chain
notes: BcsB, E. coli strain 1094, untagged; source: E. coli 1094 bcsA^HA-FLAG 2K7 strain (bcs operons overexpressed from the chromosome), solubilised membranes; purified complex for EM

Experiments:
[1] = biological target: the molecule itself; test: negative-stain electron microscopy; Inner membrane subcomplex purified from BL21 (DE3) expressing bcs^HisRQA^HA-FLAGB-pCDF-Duet; reconstruction at 21.1 Å
[2] = biological target: the molecule itself; test: negative-stain electron microscopy; Bcs macrocomplex purified from E. coli 1094 bcsA^HA-FLAG 2K7, GraFix cross-linked in the gradient; non-symmetrized reconstruction at 16.7 Å

Row | Protein | stoichiometry N [1] | stoichiometry N [2]
1 | B1 | 6 | 
2 | B2 |  | 6
